Measurements: paper PMC3282699, “S. pombe Kinesins-8 Promote Both Nucleation and Catastrophe of Microtubules” (PLoS ONE, 2012)
One block for each molecule: values may come before it.

What was measured:
Klp6_(440)His (S. pombe) = Klp6_(440)His (S. pombe) (UniProt O59751)
[1] = target: S. pombe GMPCPP microtubules (S. pombe), P04688
[2] = target: S. pombe tubulin heterodimer (S. pombe), P04688
[3] = target: Taxol stabilised pig brain microtubules (pig) (UniProt P02550)
[4] = target: the molecule itself; assay: SEC; Superose-12 HR 10/300 GL at 4°C, 0.5 ml/min, 100 mM PIPES, 200 mM NaCl, 1 mM MgCl2, 2 mM EDTA, pH 6.9; elution compared with Ovalbumin (43 kDa) and Bovine Serum Albumin (67 kDa)
[5] = target: S. pombe single isoform (α1β) tubulin heterodimer (S. pombe) (UniProt P04688); assay: SEC; 15 µM tubulin with 10.7 µM dimeric Klp6_(440)His incubated at 4°C for 30 min in 80 mM PIPES, 2.5 mM MgCl2, 1 mM EDTA, 1.5 mM GMPCPP, 1 mM DTT pH 6.9; Superose-12 at 4°C; fractions on SDS-PAGE, fluorescent stain quantified
[6] = target: S. pombe GMPCPP microtubules (S. pombe) (UniProt P04688)
[7] = target: S. pombe tubulin heterodimer (S. pombe) (UniProt P04688)
[8] = target: pig brain tubulin heterodimer (pig) (UniProt P02550)
Klp5FLGST = target: T1, Klp5FLGST (S. pombe, UniProt O14343 1-883); assay: pull-down; co-expressed in E. coli; sequential affinity purification from the bacterial lysate by the His tag (Ni column) and then the GST tag (eluted with 10 mM glutathione); SDS-PAGE, densitometry; conditions: partners not purified
T1 construct: Klp5, kinesin-8 of S. pombe, amino acids 1-883; it was only obtained co-expressed with Klp6FLHis; The cloning of this plasmid is not described in the methods; also called full-length Klp5; not shown: GST, C-terminal, kept
T1 sequence (looked up): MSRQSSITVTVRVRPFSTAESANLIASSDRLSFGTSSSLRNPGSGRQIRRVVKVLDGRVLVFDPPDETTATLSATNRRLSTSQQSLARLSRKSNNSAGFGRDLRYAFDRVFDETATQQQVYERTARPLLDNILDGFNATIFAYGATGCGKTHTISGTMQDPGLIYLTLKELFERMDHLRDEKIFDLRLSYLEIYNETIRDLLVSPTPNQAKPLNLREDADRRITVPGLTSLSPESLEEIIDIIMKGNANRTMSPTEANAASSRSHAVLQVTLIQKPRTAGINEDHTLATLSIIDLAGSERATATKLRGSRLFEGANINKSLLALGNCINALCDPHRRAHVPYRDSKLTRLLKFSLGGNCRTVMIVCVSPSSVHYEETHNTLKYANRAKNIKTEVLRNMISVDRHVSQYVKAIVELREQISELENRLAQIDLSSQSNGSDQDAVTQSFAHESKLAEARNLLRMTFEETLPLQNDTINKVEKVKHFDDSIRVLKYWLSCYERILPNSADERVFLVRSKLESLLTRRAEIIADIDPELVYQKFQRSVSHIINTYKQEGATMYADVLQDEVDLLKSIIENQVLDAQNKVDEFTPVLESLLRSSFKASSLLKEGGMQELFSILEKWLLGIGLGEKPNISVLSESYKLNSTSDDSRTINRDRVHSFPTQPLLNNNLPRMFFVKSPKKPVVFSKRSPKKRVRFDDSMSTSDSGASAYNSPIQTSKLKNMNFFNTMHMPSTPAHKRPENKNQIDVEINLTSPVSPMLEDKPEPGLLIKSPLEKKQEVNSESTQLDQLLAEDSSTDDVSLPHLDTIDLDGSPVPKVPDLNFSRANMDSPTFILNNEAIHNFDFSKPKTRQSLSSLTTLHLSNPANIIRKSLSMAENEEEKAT

Sequence of S. pombe tubulin heterodimer (S. pombe), P04688 (P04688 whole entry, chain 1 of 2): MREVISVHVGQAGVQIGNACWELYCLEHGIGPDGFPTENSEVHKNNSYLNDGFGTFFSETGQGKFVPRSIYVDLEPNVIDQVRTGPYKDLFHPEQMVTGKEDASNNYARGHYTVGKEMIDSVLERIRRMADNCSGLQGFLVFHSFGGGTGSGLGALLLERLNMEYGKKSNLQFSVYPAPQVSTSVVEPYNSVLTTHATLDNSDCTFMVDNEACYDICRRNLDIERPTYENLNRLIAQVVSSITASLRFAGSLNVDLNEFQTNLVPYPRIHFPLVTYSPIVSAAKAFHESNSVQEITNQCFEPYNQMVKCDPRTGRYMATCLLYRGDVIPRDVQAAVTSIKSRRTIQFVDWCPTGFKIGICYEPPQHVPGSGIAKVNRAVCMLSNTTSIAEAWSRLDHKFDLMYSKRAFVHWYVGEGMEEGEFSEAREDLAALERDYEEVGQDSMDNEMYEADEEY
Sequence of S. pombe tubulin heterodimer (S. pombe), P04688 (P05219 whole entry, chain 2 of 2, further chain): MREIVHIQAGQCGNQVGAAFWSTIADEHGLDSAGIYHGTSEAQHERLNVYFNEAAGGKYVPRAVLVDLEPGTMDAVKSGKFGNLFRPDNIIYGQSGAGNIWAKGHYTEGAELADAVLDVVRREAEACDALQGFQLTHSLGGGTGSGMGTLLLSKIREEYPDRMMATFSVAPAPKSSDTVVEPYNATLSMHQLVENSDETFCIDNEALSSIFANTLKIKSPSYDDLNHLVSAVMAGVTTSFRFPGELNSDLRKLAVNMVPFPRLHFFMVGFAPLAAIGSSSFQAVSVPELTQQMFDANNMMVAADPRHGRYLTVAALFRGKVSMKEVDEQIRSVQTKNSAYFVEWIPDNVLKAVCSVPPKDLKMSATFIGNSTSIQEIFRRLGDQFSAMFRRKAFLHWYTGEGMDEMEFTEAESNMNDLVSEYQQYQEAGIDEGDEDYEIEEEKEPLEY
Sequence of pig brain tubulin heterodimer (pig) (P02550 whole entry, chain 1 of 2): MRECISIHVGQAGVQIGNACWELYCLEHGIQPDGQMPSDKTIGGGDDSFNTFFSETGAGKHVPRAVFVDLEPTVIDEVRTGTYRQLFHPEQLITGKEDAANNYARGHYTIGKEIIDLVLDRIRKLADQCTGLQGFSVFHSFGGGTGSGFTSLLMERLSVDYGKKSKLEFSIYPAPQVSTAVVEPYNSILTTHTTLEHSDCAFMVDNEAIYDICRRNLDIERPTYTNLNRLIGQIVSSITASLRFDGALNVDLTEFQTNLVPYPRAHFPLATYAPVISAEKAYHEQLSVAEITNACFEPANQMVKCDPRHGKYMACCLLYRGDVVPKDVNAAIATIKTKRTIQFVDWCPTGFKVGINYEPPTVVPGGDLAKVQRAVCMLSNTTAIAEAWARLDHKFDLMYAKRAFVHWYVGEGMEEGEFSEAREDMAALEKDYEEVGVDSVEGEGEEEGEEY
Sequence of pig brain tubulin heterodimer (pig) (Q767L7 whole entry, chain 2 of 2, further chain): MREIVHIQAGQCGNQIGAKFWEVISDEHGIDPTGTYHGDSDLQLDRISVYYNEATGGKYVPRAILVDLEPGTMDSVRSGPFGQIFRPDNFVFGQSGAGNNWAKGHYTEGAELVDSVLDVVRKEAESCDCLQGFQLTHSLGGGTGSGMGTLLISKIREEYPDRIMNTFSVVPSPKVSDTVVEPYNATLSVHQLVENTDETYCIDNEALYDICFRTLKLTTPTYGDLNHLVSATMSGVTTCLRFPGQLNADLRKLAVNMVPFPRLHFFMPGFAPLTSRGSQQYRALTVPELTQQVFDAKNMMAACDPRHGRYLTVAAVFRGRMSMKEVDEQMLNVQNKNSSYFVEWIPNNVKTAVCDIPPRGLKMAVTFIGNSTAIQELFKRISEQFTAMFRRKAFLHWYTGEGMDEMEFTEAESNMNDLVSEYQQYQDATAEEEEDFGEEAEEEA
Sequence of S. pombe tubulin heterodimer (S. pombe) (P04688 whole entry, chain 1 of 2): as the sequence (P04688 whole entry, chain 1 of 2) above
Sequence of S. pombe tubulin heterodimer (S. pombe) (P05219 whole entry, chain 2 of 2, further chain): as the sequence (P05219 whole entry, chain 2 of 2, further chain) above

Molecule: S. pombe tubulin heterodimer (from UniProt P04688 1-455; P05219 1-448) (complex)
Ki of tubulin heterodimers for inhibition of the Klp6 (440)His ATPase stimulated by 73 nM Taxol stabilised pig brain microtubules (blocked pair: m3 with m12) (Klp6_(440)His (S. pombe)): 121 nM

Molecule: pig brain tubulin heterodimer (from UniProt P02550 1-451; Q767L7 1-444) (complex)
Ki of tubulin heterodimers for inhibition of the Klp6 (440)His ATPase stimulated by 73 nM Taxol stabilised pig brain microtubules (blocked pair: m3 with m12) (Klp6_(440)His (S. pombe)): 175 nM

B4: Klp5_(436) (domain or fragment)
chain: MSRQSSITVTVRVRPFSTAESANLIASSDRLSFGTSSSLRNPGSGRQIRRVVKVLDGRVLVFDPPDETTATLSATNRRLSTSQQSLARLSRKSNNSAGFGRDLRYAFDRVFDETATQQQVYERTARPLLDNILDGFNATIFAYGATGCGKTHTISGTMQDPGLIYLTLKELFERMDHLRDEKIFDLRLSYLEIYNETIRDLLVSPTPNQAKPLNLREDADRRITVPGLTSLSPESLEEIIDIIMKGNANRTMSPTEANAASSRSHAVLQVTLIQKPRTAGINEDHTLATLSIIDLAGSERATATKLRGSRLFEGANINKSLLALGNCINALCDPHRRAHVPYRDSKLTRLLKFSLGGNCRTVMIVCVSPSSVHYEETHNTLKYANRAKNIKTEVLRNMISVDRHVSQYVKAIVELREQISELENRLAQIDLSSQSN
Km of the microtubule stimulated ATPase (S. pombe GMPCPP microtubules), linked assay at 25°C [6]: 0.05 µM
Km of the tubulin heterodimer stimulated ATPase (S. pombe tubulin), linked assay at 25°C [7]: 0.336 µM
Km of the microtubule stimulated ATPase (Taxol stabilised pig brain microtubules), linked assay at 25°C [3]: 0.045 µM
Km of the tubulin heterodimer stimulated ATPase (pig brain tubulin), linked assay at 25°C [8]: 0.427 µM

B5: Klp5_(436)GST, O14343 1-436 (domain or fragment)
chain: MSRQSSITVTVRVRPFSTAESANLIASSDRLSFGTSSSLRNPGSGRQIRRVVKVLDGRVLVFDPPDETTATLSATNRRLSTSQQSLARLSRKSNNSAGFGRDLRYAFDRVFDETATQQQVYERTARPLLDNILDGFNATIFAYGATGCGKTHTISGTMQDPGLIYLTLKELFERMDHLRDEKIFDLRLSYLEIYNETIRDLLVSPTPNQAKPLNLREDADRRITVPGLTSLSPESLEEIIDIIMKGNANRTMSPTEANAASSRSHAVLQVTLIQKPRTAGINEDHTLATLSIIDLAGSERATATKLRGSRLFEGANINKSLLALGNCINALCDPHRRAHVPYRDSKLTRLLKFSLGGNCRTVMIVCVSPSSVHYEETHNTLKYANRAKNIKTEVLRNMISVDRHVSQYVKAIVELREQISELENRLAQIDLSSQSN
Km of the microtubule stimulated ATPase (S. pombe GMPCPP microtubules), linked assay at 25°C [1]: 0.045 µM
Km of the tubulin heterodimer stimulated ATPase (S. pombe tubulin), linked assay at 25°C [2]: 0.108 µM

B6: Klp6FLHis (natural protein, S. pombe, UniProt O59751 1-784, looked up)
chain: MKEGSSISVAVRVRPFTEREKGLLAETPKSKEFLGDGSLAVSNTSSNTFCTNGIRKIVRVLDDNVLIFDPPEENPLAKVQKSLLPAGKRFRDVRYAFDRLFGEEASQEDVYKGTTEPLLDSVLQGYNATVFAYGATGCGKTHTISGRPDDPGIIFLTMRALLDRVEGLKRTMNVDISVSYLEIYNEKIRDLLVQDPLSMEKPKSLNICEDAEQNVSVPGLSYFTPTNLEEVMEIIIRGNSNRTMSPTEANAVSSRSHAVLQIYITQTPKSGEKQEESESQNSHKVRSVFSFIDLAGSERASATKNRGKRLVEGANINRSLLALGNCINSLCEPRRRQHVPYRDSKLTRLLKFSLGGNCRTCMIVCISPSSEHYDETHNTLKYGNRAKNIKTKVSRNVVSVDRHVSEYVRTIYELRQKVSILQKRIAEESKQLALNKEVRKISSREIKMLDARSMLKNSFDGSRDLQKSLIEHVRTLRRIEDEITLTKMWISIAKESDAMSGHNIKSVETRLAKLYDQRSLITAKVNPEEICKTFQNSISHIVSSFKGEGADMYADMLQDDVDLLKSIIENQILDAKHESETFSSTSRKLIQNLFLLFPLLPGNAIDVNESLARAFDQLVGIVPSEPTIQVPNLIEKGKAPLLSMFEIPRSPSRFKARSPSKAARVLKKPLKKRVRFSEVPTTSSVPPVEIKNKDSKPKVEKSLDKHNMNNDRSFLVPSRDARNSLTSLSLHSNVAKNKSSHSSKWPTHTLSPIITTALKQPVRRISLVSQPLQKTGGTENTPNA
notes: Klp6, kinesin-8 of S. pombe, amino acids 1-784; also called full-length Klp6; Klp6(aa1-784)/GlyGly/6xHis tag; not shown: His6 (after a GlyGly linker), C-terminal, kept
molar ratio of Klp6FLHis : Klp5FLGST in the sequentially purified fraction (Klp5FLGST): 3.2 Klp6FLHis per Klp5FLGST

Further lines, with some results ahead:

Km of the microtubule stimulated ATPase (S. pombe GMPCPP microtubules), linked assay at 25°C [1]: 0.056 µM
Km of the tubulin heterodimer stimulated ATPase (S. pombe tubulin), linked assay at 25°C [2]: 0.373 µM
B1: Klp6_(440)His, O59751 1-440 (domain or fragment)
chain: MKEGSSISVAVRVRPFTEREKGLLAETPKSKEFLGDGSLAVSNTSSNTFCTNGIRKIVRVLDDNVLIFDPPEENPLAKVQKSLLPAGKRFRDVRYAFDRLFGEEASQEDVYKGTTEPLLDSVLQGYNATVFAYGATGCGKTHTISGRPDDPGIIFLTMRALLDRVEGLKRTMNVDISVSYLEIYNEKIRDLLVQDPLSMEKPKSLNICEDAEQNVSVPGLSYFTPTNLEEVMEIIIRGNSNRTMSPTEANAVSSRSHAVLQIYITQTPKSGEKQEESESQNSHKVRSVFSFIDLAGSERASATKNRGKRLVEGANINRSLLALGNCINSLCEPRRRQHVPYRDSKLTRLLKFSLGGNCRTCMIVCISPSSEHYDETHNTLKYGNRAKNIKTKVSRNVVSVDRHVSEYVRTIYELRQKVSILQKRIAEESKQLALNKEVRK

Km of the microtubule stimulated ATPase (Taxol stabilised pig brain microtubules), linked assay at 25°C [3]: 0.085 µM
stoichiometry N (tubulin heterodimer per kinesin head) [5]: 1
B2: Klp6_(440)His (domain or fragment, S. pombe, UniProt O59751 1-440, looked up)
chain: MKEGSSISVAVRVRPFTEREKGLLAETPKSKEFLGDGSLAVSNTSSNTFCTNGIRKIVRVLDDNVLIFDPPEENPLAKVQKSLLPAGKRFRDVRYAFDRLFGEEASQEDVYKGTTEPLLDSVLQGYNATVFAYGATGCGKTHTISGRPDDPGIIFLTMRALLDRVEGLKRTMNVDISVSYLEIYNEKIRDLLVQDPLSMEKPKSLNICEDAEQNVSVPGLSYFTPTNLEEVMEIIIRGNSNRTMSPTEANAVSSRSHAVLQIYITQTPKSGEKQEESESQNSHKVRSVFSFIDLAGSERASATKNRGKRLVEGANINRSLLALGNCINSLCEPRRRQHVPYRDSKLTRLLKFSLGGNCRTCMIVCISPSSEHYDETHNTLKYGNRAKNIKTKVSRNVVSVDRHVSEYVRTIYELRQKVSILQKRIAEESKQLALNKEVRK
notes: Klp6 of S. pombe, amino acids 1-440: motor domain and complete putative coiled-coil domain; Homodimer by Superose 12 gel filtration; also called Klp6(aa1-440)/GlyGly/6xHis tag; Klp440His; source: E. coli Rosetta 2 (DE3), purified (HisTrap); not shown: His6 (after a GlyGly linker), C-terminal, kept
stoichiometry N [4]: 2

Km of the microtubule stimulated ATPase (Taxol stabilised pig brain microtubules), linked assay at 25°C [3]: 0.0278 µM
B3: Klp5_(436)GST (domain or fragment)
chain: MSRQSSITVTVRVRPFSTAESANLIASSDRLSFGTSSSLRNPGSGRQIRRVVKVLDGRVLVFDPPDETTATLSATNRRLSTSQQSLARLSRKSNNSAGFGRDLRYAFDRVFDETATQQQVYERTARPLLDNILDGFNATIFAYGATGCGKTHTISGTMQDPGLIYLTLKELFERMDHLRDEKIFDLRLSYLEIYNETIRDLLVSPTPNQAKPLNLREDADRRITVPGLTSLSPESLEEIIDIIMKGNANRTMSPTEANAASSRSHAVLQVTLIQKPRTAGINEDHTLATLSIIDLAGSERATATKLRGSRLFEGANINKSLLALGNCINALCDPHRRAHVPYRDSKLTRLLKFSLGGNCRTVMIVCVSPSSVHYEETHNTLKYANRAKNIKTEVLRNMISVDRHVSQYVKAIVELREQISELENRLAQIDLSSQSN
